Assay results reported in IntAct's records for PubMed 25819436.

Assays:
amph_rat Amph = amph_rat Amph (UniProt O08838)
sh3g1_rat Sh3gl1 = sh3g1_rat Sh3gl1 (UniProt O35964)
grb2_human GRB2 = grb2_human GRB2 (UniProt P62993)
sh3g2_rat Sh3gl2 = sh3g2_rat Sh3gl2 (UniProt O35179)
Chain of sh3g2_rat Sh3gl2 (O35179 whole entry): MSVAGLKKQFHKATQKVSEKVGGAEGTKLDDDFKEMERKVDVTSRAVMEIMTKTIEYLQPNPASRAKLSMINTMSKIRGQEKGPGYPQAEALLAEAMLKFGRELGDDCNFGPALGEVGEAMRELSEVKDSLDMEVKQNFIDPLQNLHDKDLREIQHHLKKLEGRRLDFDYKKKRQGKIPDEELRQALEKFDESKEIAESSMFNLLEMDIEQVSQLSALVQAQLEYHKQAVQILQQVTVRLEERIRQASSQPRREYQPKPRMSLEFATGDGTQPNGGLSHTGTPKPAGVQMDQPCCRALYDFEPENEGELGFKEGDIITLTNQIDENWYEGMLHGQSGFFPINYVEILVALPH

Chain of SLIT-ROBO Rho GTPase-activating protein 3 (Homo sapiens), O43295 P1056A;P1059A (O43295 whole entry P1056A/P1059A): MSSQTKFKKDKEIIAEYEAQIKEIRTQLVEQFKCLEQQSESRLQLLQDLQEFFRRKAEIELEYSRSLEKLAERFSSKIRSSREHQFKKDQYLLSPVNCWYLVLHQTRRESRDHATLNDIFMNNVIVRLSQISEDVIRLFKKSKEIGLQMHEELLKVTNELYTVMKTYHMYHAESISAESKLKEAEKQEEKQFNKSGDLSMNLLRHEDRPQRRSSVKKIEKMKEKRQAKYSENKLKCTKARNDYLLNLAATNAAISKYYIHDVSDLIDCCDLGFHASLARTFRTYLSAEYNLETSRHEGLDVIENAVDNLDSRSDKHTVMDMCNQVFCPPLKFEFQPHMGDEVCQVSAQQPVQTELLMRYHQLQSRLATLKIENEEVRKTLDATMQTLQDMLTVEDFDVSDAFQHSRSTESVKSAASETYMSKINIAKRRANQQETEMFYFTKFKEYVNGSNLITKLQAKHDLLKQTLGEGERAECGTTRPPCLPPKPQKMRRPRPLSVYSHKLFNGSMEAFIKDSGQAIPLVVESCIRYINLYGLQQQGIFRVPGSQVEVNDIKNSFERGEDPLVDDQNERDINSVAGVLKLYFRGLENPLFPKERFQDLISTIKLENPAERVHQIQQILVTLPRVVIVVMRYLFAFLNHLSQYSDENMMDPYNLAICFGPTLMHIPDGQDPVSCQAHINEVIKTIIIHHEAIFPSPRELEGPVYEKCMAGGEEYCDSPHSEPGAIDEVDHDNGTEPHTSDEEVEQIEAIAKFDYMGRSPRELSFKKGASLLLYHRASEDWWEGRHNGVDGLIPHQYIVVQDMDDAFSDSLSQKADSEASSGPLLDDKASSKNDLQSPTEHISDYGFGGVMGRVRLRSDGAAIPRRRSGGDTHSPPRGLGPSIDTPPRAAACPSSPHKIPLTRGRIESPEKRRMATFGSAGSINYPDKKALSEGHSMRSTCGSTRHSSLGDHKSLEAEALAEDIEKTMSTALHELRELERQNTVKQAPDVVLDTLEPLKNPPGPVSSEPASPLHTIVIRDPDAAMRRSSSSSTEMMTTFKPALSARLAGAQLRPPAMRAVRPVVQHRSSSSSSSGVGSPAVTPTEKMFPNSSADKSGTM
Chain of amph_rat Amph (O08838 whole entry): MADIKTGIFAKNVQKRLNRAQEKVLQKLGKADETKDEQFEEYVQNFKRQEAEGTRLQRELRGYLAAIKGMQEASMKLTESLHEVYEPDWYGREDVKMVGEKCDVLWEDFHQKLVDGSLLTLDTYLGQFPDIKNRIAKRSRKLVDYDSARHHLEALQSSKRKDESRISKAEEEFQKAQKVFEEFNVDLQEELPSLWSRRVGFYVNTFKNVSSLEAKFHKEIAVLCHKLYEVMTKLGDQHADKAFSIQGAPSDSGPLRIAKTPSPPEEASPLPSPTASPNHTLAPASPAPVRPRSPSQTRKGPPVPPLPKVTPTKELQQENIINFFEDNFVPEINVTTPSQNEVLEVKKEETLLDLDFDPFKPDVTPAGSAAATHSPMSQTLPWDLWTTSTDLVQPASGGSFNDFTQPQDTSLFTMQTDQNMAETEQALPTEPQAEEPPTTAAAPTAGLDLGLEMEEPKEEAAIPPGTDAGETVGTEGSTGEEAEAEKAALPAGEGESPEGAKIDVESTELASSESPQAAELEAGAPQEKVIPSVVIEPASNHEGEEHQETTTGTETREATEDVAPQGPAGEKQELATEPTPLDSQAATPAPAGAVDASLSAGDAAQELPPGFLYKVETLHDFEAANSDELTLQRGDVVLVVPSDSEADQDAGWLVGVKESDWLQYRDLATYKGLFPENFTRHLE
Chain of sh3g1_rat Sh3gl1 (O35964 whole entry): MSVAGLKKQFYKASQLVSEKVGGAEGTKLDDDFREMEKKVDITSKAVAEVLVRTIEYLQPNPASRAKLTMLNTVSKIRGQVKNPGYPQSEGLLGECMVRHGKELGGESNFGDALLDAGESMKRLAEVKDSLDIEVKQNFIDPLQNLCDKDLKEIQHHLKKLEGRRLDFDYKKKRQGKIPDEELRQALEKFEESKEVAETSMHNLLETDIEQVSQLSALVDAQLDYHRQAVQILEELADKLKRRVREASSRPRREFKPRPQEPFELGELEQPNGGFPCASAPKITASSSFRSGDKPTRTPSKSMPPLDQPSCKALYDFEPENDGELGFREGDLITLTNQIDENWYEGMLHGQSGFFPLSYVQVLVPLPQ

effect of a mutation on the interaction (amph_rat Amph): disrupting interaction
effect of a mutation on the interaction (sh3g1_rat Sh3gl1): disrupting interaction
effect of a mutation on the interaction (grb2_human GRB2): disrupting interaction
effect of a mutation on the interaction (sh3g2_rat Sh3gl2): disrupting interaction
Substance: SLIT-ROBO Rho GTPase-activating protein 3 (Homo sapiens), O43295 P1056A;P1059A
